This is an account of results in patent publication US20220332835A1 (SHANGHAITECH UNIVERSITY, published 2022).

Positions count from the first letter of the chain named.

Test [1] addresses T1, human CXCR2 (hCXCR2) on cells (human, UniProt P25025 1-360).
T1 sequence (looked up): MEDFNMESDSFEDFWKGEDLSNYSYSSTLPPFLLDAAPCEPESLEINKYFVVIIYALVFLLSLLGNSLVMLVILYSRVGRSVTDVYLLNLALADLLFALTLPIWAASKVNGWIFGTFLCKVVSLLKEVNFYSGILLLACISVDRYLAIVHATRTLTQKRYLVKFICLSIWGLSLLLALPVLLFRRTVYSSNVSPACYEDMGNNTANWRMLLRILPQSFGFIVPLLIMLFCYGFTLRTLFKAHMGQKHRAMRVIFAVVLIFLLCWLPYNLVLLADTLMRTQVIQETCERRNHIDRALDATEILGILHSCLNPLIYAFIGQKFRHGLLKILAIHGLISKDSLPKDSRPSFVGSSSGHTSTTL
The test is described as follows: cell-based or functional assay.

Test [2] concerns the target pepN48 (peptide of the 48 N-terminal extracellular amino acids of human CXCR2) (human). Briefly: SPR, Biacore. For orientation: In SPR one partner is held on a chip, and binding of the other changes the refractive index at the surface.
Test [3] concerns the target hCXCR2-mCherry (human CXCR2 fused with mCherry, on U2OS cells) (human) (UniProt P25025). Briefly: flow cytometry, U2OS cells with hCXCR2-mCherry (ECD-A axis), antibody staining on the FITC-A axis; other quadrants UL 1.80%, LL 33.80%, LR 18.24%.
Test [4] deals with T2, rCXCR2-mCherry (rat, UniProt P35407 1-359).
T2 construct: whole, on cells; Overexpressed in U2OS cells; also called CXCR2 of rat; not shown: mCherry fluorescent tag
T2 sequence (looked up): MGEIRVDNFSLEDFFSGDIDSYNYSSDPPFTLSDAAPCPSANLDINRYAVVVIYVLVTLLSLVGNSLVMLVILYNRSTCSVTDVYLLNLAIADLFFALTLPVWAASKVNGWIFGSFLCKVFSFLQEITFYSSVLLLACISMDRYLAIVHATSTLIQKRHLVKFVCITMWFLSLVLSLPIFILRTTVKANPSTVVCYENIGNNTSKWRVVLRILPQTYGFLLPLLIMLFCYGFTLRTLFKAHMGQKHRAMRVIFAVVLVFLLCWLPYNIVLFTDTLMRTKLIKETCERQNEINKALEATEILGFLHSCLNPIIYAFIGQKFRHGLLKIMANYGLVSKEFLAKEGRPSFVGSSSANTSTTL
Briefly: FACS on transfected U2OS cells.

The target in test [5] is T3, rbCXCR2-mCherry (rabbit, UniProt P35344 1-358).
T3 construct: whole, on cells; Overexpressed in U2OS cells; also called rabbitCXCR2; CXCR2 of rabbit; not shown: mCherry fluorescent tag
T3 sequence (looked up): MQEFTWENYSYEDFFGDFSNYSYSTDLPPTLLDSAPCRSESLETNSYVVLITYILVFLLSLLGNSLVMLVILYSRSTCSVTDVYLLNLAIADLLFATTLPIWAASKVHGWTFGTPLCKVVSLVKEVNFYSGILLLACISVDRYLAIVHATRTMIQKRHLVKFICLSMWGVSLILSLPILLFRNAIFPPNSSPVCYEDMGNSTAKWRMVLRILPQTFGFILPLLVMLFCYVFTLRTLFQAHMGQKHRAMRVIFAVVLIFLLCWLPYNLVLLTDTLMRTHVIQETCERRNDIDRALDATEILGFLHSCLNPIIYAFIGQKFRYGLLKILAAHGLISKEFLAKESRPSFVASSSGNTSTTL
The test is described as follows: FACS on transfected U2OS cells.

The target of test [6] is T4, pepN48 (peptide of the 48 N-terminal extracellular amino acids of human CXCR2) (human, biotin labeled on its N-terminus (panning, ELISA, SPR)).
T4 construct: Synthetic; also called N-terminus of CXCR2
T4 peptide: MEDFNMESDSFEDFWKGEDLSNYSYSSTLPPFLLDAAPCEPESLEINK
The test is described as follows: SPR, Biacore T200; biotinylated pepN48 on SA chip.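 Further: antibodies flowed in HBS-EP+ running buffer over the immobilized antigen at 0.5 to 10 nM, kinetic traces fitted to a protein-protein interaction model to derive constants.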

The target in test [7] is T5, hCXCR1-mCherry (human, UniProt P25024 1-350).
T5 construct: whole, on cells; Overexpressed in U2OS cells; not shown: mCherry fluorescent tag
T5 sequence (looked up): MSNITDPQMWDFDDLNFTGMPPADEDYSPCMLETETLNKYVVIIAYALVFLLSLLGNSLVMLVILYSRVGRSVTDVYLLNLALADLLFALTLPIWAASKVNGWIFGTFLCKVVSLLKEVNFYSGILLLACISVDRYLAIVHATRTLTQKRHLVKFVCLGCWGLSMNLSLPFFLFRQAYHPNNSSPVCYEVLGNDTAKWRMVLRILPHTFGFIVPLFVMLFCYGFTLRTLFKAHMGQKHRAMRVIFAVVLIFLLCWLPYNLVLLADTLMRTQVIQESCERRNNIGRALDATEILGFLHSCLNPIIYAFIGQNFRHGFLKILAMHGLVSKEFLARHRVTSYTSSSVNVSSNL
Briefly: FACS on transfected U2OS cells (also immunofluorescence).

Test [8] addresses T6, mCXCR2-mCherry (mouse, UniProt P35343 1-359).
T6 construct: whole, on cells; Overexpressed in U2OS cells; also called CXCR2 of mouse; not shown: mCherry fluorescent tag
T6 sequence (looked up): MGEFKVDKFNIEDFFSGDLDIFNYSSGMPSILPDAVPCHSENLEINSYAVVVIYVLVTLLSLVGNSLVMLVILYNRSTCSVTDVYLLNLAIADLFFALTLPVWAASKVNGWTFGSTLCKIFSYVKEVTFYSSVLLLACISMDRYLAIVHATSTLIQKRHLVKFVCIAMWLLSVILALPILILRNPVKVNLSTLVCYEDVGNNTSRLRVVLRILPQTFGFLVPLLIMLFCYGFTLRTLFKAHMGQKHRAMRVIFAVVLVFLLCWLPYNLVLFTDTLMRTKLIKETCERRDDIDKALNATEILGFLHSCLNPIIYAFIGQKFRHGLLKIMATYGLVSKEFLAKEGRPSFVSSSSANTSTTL
Described as above.

Test [9] deals with T7, pepN9-19 (human).
T7 construct: Synthetic peptide, residues 9-19 of human CXCR2 (DSFEDFWKGED); also called NT9-19; pep9-19
T7 peptide: DSFEDFWKGED
Briefly: binding to truncated synthetic peptides (FIG. 9); method not named.

Test [10] deals with T8, pepN48Δ9-19 (human).
T8 construct: pepN48 with residues 9-19 deleted; also called pepN48 lacking 9-19 aa
T8 peptide: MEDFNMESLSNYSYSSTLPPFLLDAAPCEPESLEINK
The description is as above.

The target in test [11] is T4, pepN48 (peptide of the 48 N-terminal …). Briefly: SPR.

Regarding “IL8 (from UniProt P10145 28-99) (ligand)”, the β-arrestin recruitment, Tango assay, apparent EC50 in test [1] was determined as 4.5 nM.
Still for that read-out and setting: next, “GROα (CXCL1) (from UniProt P09341 35-107) (ligand)”: 5.3 nM.

B1: H8 (abN48) scFv combinatorial antibody (scFv, part only; not given: linker, domain order, IgG1 Fc, V domains shown, not shown: another chain or arm of the molecule; a dimerising Fc or GST; small tags and cut ends)
VH: QVQLVQSGAEVKKPGSSVKVSCKASGGTLSSYAISWVRQAPGQGPEWMGWINPNSGGTNYAQKFQGRVTMTRDTSISTAYMELSRLRPDDTAVYYCASGYCSSTSCYDYWGQGTLVTVSS
VL: QAVLTQPSSLSASPGASVSLTCTLRSGINVGAYRIYWYQQKPGSPPQFLLRYKSDSDKQQGSGVPSRFSGSRDASANAGILLISGLRSEDEADYYCAIWHSSAWVFGGGTQLTVL
The molecule B1 returned a Kd in [2] of 2.6 nM. In test [3], this molecule returned a percent of cells in quadrant Q1-UR (FITC-A high and ECD-A high) of 46.2%.

B2: abN48-IgG1 (antibody, V domains shown)
VH: B1 VH
VL: QAVLTQPSSLSASPGASVSLTCTLRSGINVGAYRIYWYQQKPGSPPQFLLRYKSDSDKQQGSGVPSRFSGSRDASANAGILLISGLRSEDEADYYCAIWHSSAWVFGGGTQLTVLG
notes: also called full-length abN48
Turning to B2, in test [1], the “inhibition of GROα-induced (EC80) β-arrestin recruitment, Tango assay, apparent IC50” value came to 4.7 nM; the “inhibition of GROα-induced (EC90) Ca2+ influx, FLIPR, IC50” value was 1000 nM; the “inhibition of IL8-induced (EC80) β-arrestin recruitment, Tango assay, apparent IC50” value turned out to be 2.8 nM; the “inhibition of IL8-induced (EC90) Ca2+ influx, FLIPR, IC50” value stood at 190 nM. Further, the binding result in test [4] is given as “no binding (tested: 2 µg/mL)”. Also, the binding result in test [5] is “no binding (tested: 2 µg/mL)”. Also, in [6], the Kd turned out to be 0.78 nM, the off-rate (koff) was 0.00035 s⁻¹ and the kon is 350000 M⁻¹ s⁻¹. Further, the binding result in test [7] is recorded as “no binding (tested: 2 µg/mL)”. Moreover, the binding result in test [8] is given as “no binding (tested: 2 µg/mL)”.

B3: abN48 Fab (Fab, V domains shown)
VH: B1 VH
VL: B2 VL
notes: also called abN48 (Fab form); Fab form of abN48-IgG1
For B3, the binding result in test [9] was “binds”; in test [10], “no binding”.

B4: abN48-3 (antibody, V domains shown)
VH: B1 VH with S103F, T104A, S105I, Y107F, Y109S
VL: B2 VL
notes: format as tested not clearly stated
In the case of B4, in [6], the Kd is 0.63 nM, the koff amounted to 0.00016 s⁻¹ and the on-rate constant (kon) came out at 360000 M⁻¹ s⁻¹.

B5: abN48-7 (antibody, V domains shown)
VH: B1 VH with S102G, S103R, T104A, S105R, Y107T, D108S, Y109F
VL: B2 VL
notes: as for B4
As to B5, in test [6], the Kd was determined as 0.012 nM, the off-rate constant (koff) worked out at 0.00015 s⁻¹ and the kon is 1.3e+07 M⁻¹ s⁻¹.

B6: abN48-5 (antibody, V domains shown)
VH: B1 VH with S103R, T104F, S105N, Y107K
VL: B2 VL
notes: as for B4
Take B6: in [6], the Kd was no more than 0.0012 nM, the koff was no more than 1e-06 s⁻¹ and the on-rate constant (kon) was 810000 M⁻¹ s⁻¹.

B7: abN48-6 (antibody, V domains shown)
VH: B1 VH with S103P, T104S, S105G, D108V
VL: B2 VL
notes: as for B4
As for B7, in [6], binding was characterised by a dissociation constant (Kd) of 0.21 nM, the off-rate (koff) was found to be 1.8e-05 s⁻¹ and the kon was determined as 85000 M⁻¹ s⁻¹.

B8: abN48-1 (antibody, V domains shown)
VH: B1 VH with Y100F, S102T, S103R, S105I, Y107F, D108V
VL: B2 VL
notes: Format as tested not clearly stated (sub-cloned to pFuse vector, expressed in HEK293T)
In test [6], B8 yielded a Kd of 0.26 nM, a koff of 6.4e-05 s⁻¹ and a kon of 250000 M⁻¹ s⁻¹.

B9: abN48-2 Fab (Fab, V domains shown)
VH: B1 VH with S103R, S105R
VL: B2 VL
notes: Made as abN48 Fab ('following a similar protocol'); also called abN48-2 (Fab form); Fab form of abN48-2-IgG2 (so in the source)
Consider B9, for which the binding result in test [9] is “binds”; in test [10], “no binding”.

B10: abN48-2-IgG1 (antibody, V domains shown)
VH: B1 VH with S103R, S105R
VL: B2 VL
notes: Full-length human IgG1, lambda light chain; also called ab48-2-IgG1; abN48-2-IgG2 (as misprinted)
For the molecule B10, the “fold improvement of KD against abN48-IgG1” value in test [11] is 100 fold. For the same molecule, in test [1], the “inhibition of GROα-induced (EC80) β-arrestin recruitment, Tango assay, apparent IC50” value came out at 0.37 nM; the “inhibition of GROα-induced (EC90) Ca2+ influx, FLIPR, IC50” value amounted to 110 nM; the “inhibition of IL8-induced (EC80) β-arrestin recruitment, Tango assay, apparent IC50” value stood at 0.9 nM; the “inhibition of IL8-induced (EC90) Ca2+ influx, FLIPR, IC50” value was found to be 44 nM. Moreover, the “partial agonist effect on Ca2+ influx, FLIPR, apparent EC50” value in test [1] came out at 310 nM. Moreover, in [4], the binding result is recorded as “no binding (tested: 2 µg/mL)”. Besides, the binding result in test [5] is given as “no binding (tested: 2 µg/mL)”. The molecule also had a Kd in test [6] of 0.0072 nM. In addition, the binding result in [7] is “no binding (tested: 2 µg/mL)”. In test [8], the binding result is reported as “no binding (tested: 2 µg/mL)”.

B11: abN48-4 (antibody, V domains shown)
VH: B1 VH with S102N, S103R, S105R, Y109H
VL: B2 VL
notes: as for B4
In test [6], B11 returned a Kd of 0.031 nM, a koff of 1.6e-05 s⁻¹ and a kon of 520000 M⁻¹ s⁻¹.

B12: abN48-8 (antibody, V domains shown)
VH: B1 VH with S103R, T104S, S105R
VL: B2 VL
notes: as for B4
In test [6], B12 returned a Kd of 0.016 nM, a koff of 2e-05 s⁻¹ and a kon of 1.2e+06 M⁻¹ s⁻¹.

Usually Kd stands for the constant that tells how readily two partners part at equilibrium. Low values mean higher affinity, high ones lower affinity. The koff is the rate constant with which the complex falls apart. A low value points to slow dissociation. One may read the kon as the second-order rate constant of association.
